Reference: article PMC3077382, “14-3-3 Proteins Regulate Exonuclease 1–Dependent Processing of Stalled Replication Forks” (PLoS Genetics, 2011)

Biological target: T1, Exo1-Myc (S. cerevisiae, UniProt P39875 1-702)
T1 construct: Saccharomyces cerevisiae Exonuclease 1 (Exo1); C-terminal Myc tag added to the endogenous EXO1 gene; also called yeast Exo1; source: S. cerevisiae (W303-1A background), endogenous EXO1 gene tagged; in whole cell extract; immunoprecipitated from control or HU-treated cells for Far Western; not shown: Myc, C-terminal, kept
T1 sequence (looked up): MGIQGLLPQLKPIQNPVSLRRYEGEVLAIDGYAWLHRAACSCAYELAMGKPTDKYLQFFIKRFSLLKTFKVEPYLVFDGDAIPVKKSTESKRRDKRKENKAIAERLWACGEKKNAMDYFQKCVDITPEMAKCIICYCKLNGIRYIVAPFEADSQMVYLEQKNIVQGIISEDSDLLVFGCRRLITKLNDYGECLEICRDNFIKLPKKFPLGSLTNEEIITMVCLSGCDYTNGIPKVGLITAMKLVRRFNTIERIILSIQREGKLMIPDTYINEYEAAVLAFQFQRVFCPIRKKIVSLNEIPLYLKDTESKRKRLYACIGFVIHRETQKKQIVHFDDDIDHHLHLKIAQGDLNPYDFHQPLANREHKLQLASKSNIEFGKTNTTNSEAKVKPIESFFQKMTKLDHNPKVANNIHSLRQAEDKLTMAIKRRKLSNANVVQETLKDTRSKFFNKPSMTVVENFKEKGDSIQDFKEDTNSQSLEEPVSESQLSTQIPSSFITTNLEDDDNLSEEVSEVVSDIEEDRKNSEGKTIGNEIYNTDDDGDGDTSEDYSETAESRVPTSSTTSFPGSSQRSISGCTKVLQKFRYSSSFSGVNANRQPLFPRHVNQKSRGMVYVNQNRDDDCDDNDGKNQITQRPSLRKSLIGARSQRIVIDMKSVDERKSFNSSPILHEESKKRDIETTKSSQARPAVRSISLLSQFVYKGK
Test: far-Western, overlay or dot blot; Exo1-Myc immunoprecipitated from untreated or HU-treated yeast cells, resolved by SDS-PAGE, transferred to PVDF and denatured/renatured; probed with purified GST-Bmh1 (2 µg)
Conditions: both partners purified

B1: GST-Bmh1 (natural protein, S. cerevisiae, UniProt P29311 1-267, looked up)
chain: MSTSREDSVYLAKLAEQAERYEEMVENMKTVASSGQELSVEERNLLSVAYKNVIGARRASWRIVSSIEQKEESKEKSEHQVELICSYRSKIETELTKISDDILSVLDSHLIPSATTGESKVFYYKMKGDYHRYLAEFSSGDAREKATNASLEAYKTASEIATTELPPTHPIRLGLALNFSVFYYEIQNSPDKACHLAKQAFDDAIAELDTLSEESYKDSTLIMQLLRDNLTLWTSDMSESGQAEDQQQQQQHQQQQPPAAAEGEAPK
notes: Saccharomyces cerevisiae 14-3-3 protein Bmh1; also called purified recombinant GST-Bmh1
  binding result: binds
